Conditions in all cases: both partners purified
The target in assay [1] is T1, prostate-specific antigen (PSA), uncomplexed free PSA (Homo sapiens, UniProt P07288).
T1 construct: prostate-specific antigen (PSA), human kallikrein; uncomplexed (free) form; also called fPSA; source: bought: Merck (ELISA)
The experiment in a line: SPR; Biacore 2000; PSA immobilised on a CM4 chip by amine coupling (900-1000 RU); antibodies at 100, 50, 25, 12.5 and 10 nM in HSP-buffer flown at 30 uL/min; association 4-5 min, dissociation up to 480 min; bi-exponential fits to binding and dissociation curves; KD = Koff/Kon. For orientation: SPR reads the build-up and loss of mass on a sensor chip optically.

The target in assay [2] is T2, human kallikrein-2 (hK2) (Homo sapiens, UniProt P20151).
T2 construct: human kallikrein-2 (hK2), the human protein most similar to PSA; source: bought: Innovagen AB (ELISA)
T2 sequence (P20151 19-261): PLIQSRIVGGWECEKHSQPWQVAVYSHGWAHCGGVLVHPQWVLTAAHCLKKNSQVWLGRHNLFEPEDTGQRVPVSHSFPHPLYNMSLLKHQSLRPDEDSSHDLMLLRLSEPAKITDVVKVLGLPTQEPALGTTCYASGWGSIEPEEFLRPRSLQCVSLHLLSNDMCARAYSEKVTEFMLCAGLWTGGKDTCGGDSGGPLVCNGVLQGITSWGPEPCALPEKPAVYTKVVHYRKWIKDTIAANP
The experiment in a line: SPR; control hK2 antigen; data not shown.

Assay [3] addresses T2, human kallikrein-2 (hK2). The assay can be described thus: ELISA; wells coated with PSA or hK2 (100 uL at 1 ug/mL) overnight; h5A10 dilution series from 5 ug/mL in four-fold steps, 1 h at RT; detected with goat anti-human-AP and pNPP, absorbance at 405 nm. A general note: ELISA stands for enzyme-linked immunosorbent assay.

These results are taken from article PMC8703390, “Humanization, Radiolabeling and Biodistribution Studies of an IgG1-Type Antibody Targeting Uncomplexed PSA for Theranostic Applications” (Pharmaceuticals, 2021).

T1 sequence (P07288 25-261, one chain of several): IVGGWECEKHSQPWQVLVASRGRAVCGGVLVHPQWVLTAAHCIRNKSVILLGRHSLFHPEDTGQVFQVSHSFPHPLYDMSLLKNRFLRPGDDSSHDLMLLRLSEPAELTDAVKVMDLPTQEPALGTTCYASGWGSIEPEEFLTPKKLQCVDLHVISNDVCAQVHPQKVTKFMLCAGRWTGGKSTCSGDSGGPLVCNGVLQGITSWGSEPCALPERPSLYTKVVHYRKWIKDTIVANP

B1: murine 5A10 monoclonal IgG1 (antibody, V domains shown)
VH: EVQLVESGPGILQPSQTLSLTCSFSGFSLSTTGMGVSWIRQPSGKGLEWLAHLYWDEDKRYNPSLKSRLTISEDSSRNQVFLKITSVGPADSATYYCARKGYYGYFDYWGQGTALTVSS
VL: DIVMTQSQKFMSTSVGDRVSVTCKASQNVNTDVAWYQQKPGQSPKALIFSTSYRSSGVPDRFTGSGSGTDFTLTITNVQSEDLAEYFCQQYSNYPLTFGAGTKVDLN
notes: heavy chain variable domain of m5A10; murine IgG1 heavy chain constant region; light chain variable domain of m5A10; light chain constant region; Murine IgG1; also called m5A10; parental murine antibody m5A10; source: provided by the University of Turku (Finland), prepared as previously described [8]
With B1, in assay [1], the equilibrium dissociation constant (Kd) (commonly the free concentration of one partner at which half of the binding sites on the other are occupied at equilibrium, for simple one-to-one binding) worked out at 0.022 nM; the koff (in general, a measure of how fast the partners let go of each other) is 5.4e-06 s⁻¹; the association rate constant (kon) (commonly the second-order rate constant of association) is 250000 M⁻¹ s⁻¹. In addition, the binding result with human kallikrein-2 (hK2) [2] is “no binding (tested: 100, 50, 25, 12.5 and 10 nM)”.

B2: murine 5A10 conjugated with p-SCN-Bn-CHX-A''-DTPA (antibody, V domains shown)
VH: B1 VH
VL: B1 VL
notes: as the heavy chain variable domain of m2; murine IgG1 heavy chain constant region, as in m2; as the light chain variable domain of m2; as the light chain constant region of m2; Murine IgG1; also called m5A10-DTPA; DTPA-m5A10; source: provided by the University of Turku (Finland); conjugated with p-SCN-Bn-CHX-A''-DTPA and separated from free chelate on a NAP-5 column
Regarding B2, in assay [1], the equilibrium dissociation constant (Kd) is 0.023 nM, the off-rate constant (koff) was found to be 6.3e-06 s⁻¹ and the association rate constant (kon) turned out to be 270000 M⁻¹ s⁻¹. Also, the binding result with human kallikrein-2 (hK2) [2] is “no binding (tested: 100, 50, 25, 12.5 and 10 nM)”.

B3: humanized 5A10 conjugated with p-SCN-Bn-CHX-A''-DTPA (antibody, V domains shown)
VH: QVTLKESGPALVKPTQTLTLTCTFSGFSLSTTGMGVSWIRQPPGKALEWLAHIYWDDDKRYSTSLKTRLTISEDSSKNQVVLTMTNMDPVDTATYYCARKGYYGYFDYWGQGTLVTVSS
VL: DIQMTQSPSSLSASVGDRVTVTCRASQNVNTDVAWYQQKPGKAPKALIFSTSYLQSGVPSRFSGSGSGTDFTLTISSLQPEDFATYYCQQYSNYPLTFGQGTKVEIK
notes: as the heavy chain variable domain of m1; IgG1 heavy chain constant region, as in m1; as the light chain variable domain of m1; as the light chain constant region of m1; not described; IgG1; 111In labelling used the 3:1 conjugate, 177Lu labelling the 12:1 conjugate; also called h5A10-DTPA; DTPA-h5A10; source: HEK293 cells, transfected; purified by Protein G chromatography; conjugated with …
In assay [1], B3 registered a Kd of 0.012 nM, a dissociation rate constant (koff) of 4.8e-06 s⁻¹ and a kon of 390000 M⁻¹ s⁻¹. The binding result with human kallikrein-2 (hK2) [2] was “no binding (tested: 100, 50, 25, 12.5 and 10 nM)”.

B4: humanized 5A10 IgG1 (antibody, V domains shown)
VH: B3 VH
VL: B3 VL
notes: heavy chain variable domain of h5A10; IgG1 heavy chain constant region; light chain variable domain of h5A10; light chain constant region; not described, only the plasmid name p5A10VlhDhK hints at human kappa; IgG1; Light chain constant region probably human kappa (surmised from the plasmid name and the Vk1 template); also called h5A10; humanized antibody h5A10; source: HEK293 cells, transfected; …
In assay [1], B4 displayed a Kd of 0.0077 nM, an off-rate constant (koff) of 4.8e-06 s⁻¹ and a kon of 620000 M⁻¹ s⁻¹. Also, in the assay with human kallikrein-2 (hK2) [3], the binding result is listed as “no binding (tested: 5 µg/mL)”.
